In article PMC6276866 (Circulation, 2018) one finds Kd data, which are given here for two molecules.

B1: recombinant B56α protein (natural protein)
chain: not shown

The target in experiment [1] is purified recombinant AnkB, wild type (SPR) (UniProt Q01484-2 1-1872). Nature of the experiment: SPR.
The experiment “recombinant B56α protein” concerns the target B1. Nature of the experiment: SPR.

Chain of recombinant B56α protein (Q15172 whole entry): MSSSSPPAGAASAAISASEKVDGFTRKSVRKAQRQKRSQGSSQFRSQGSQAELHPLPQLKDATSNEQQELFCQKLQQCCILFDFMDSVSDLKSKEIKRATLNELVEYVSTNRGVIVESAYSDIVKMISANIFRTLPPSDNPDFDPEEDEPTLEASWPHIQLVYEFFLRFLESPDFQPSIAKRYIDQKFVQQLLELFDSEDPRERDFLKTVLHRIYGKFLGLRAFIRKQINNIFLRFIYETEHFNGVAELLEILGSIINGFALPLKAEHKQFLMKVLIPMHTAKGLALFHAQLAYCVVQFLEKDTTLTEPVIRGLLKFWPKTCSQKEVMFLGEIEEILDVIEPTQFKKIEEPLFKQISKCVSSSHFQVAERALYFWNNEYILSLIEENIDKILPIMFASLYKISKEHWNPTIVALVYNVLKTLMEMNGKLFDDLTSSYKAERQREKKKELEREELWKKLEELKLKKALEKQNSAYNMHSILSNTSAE

With B1, the equilibrium dissociation constant (Kd) in experiment [1] was 1.64 ± 0.05 µM.

B2: purified recombinant mutant AnkB (p.Q1283H) (SPR) (natural protein)
chain: MMNEDAAQKSDSGEKFNGSSQRRKRPKKSDSNASFLRAARAGNLDKVVEYLKGGIDINTCNQNGLNALHLAAKEGHVGLVQELLGRGSSVDSATKKGNTALHIASLAGQAEVVKVLVKEGANINAQSQNGFTPLYMAAQENHIDVVKYLLENGANQSTATEDGFTPLAVALQQGHNQAVAILLENDTKGKVRLPALHIAARKDDTKSAALLLQNDHNADVQSKMMVNRTTESGFTPLHIAAHYGNVNVATLLLNRGAAVDFTARNGITPLHVASKRGNTNMVKLLLDRGGQIDAKTRDGLTPLHCAARSGHDQVVELLLERGAPLLARTKNGLSPLHMAAQGDHVECVKHLLQHKAPVDDVTLDYLTALHVAAHCGHYRVTKLLLDKRANPNARALNGFTPLHIACKKNRIKVMELLVKYGASIQAITESGLTPIHVAAFMGHLNIVLLLLQNGASPDVTNIRGETALHMAARAGQVEVVRCLLRNGALVDARAREEQTPLHIASRLGKTEIVQLLLQHMAHPDAATTNGYTPLHISAREGQVDVASVLLEAGAAHSLATKKGFTPLHVAAKYGSLDVAKLLLQRRAAADSAGKNGLTPLHVAAHYDNQKVALLLLEKGASPHATAKNGYTPLHIAAKKNQMQIASTLLNYGAETNIVTKQGVTPLHLASQEGHTDMVTLLLDKGANIHMSTKSGLTSLHLAAQEDKVNVADILTKHGADQDAHTKLGYTPLIVACHYGNVKMVNFLLKQGANVNAKTKNGYTPLHQAAQQGHTHIINVLLQHGAKPNATTANGNTALAIAKRLGYISVVDTLKVVTEEVTTTTTTITEKHKLNVPETMTEVLDVSDEEGDDTMTGDGGEYLRPEDLKELGDDSLPSSQFLDGMNYLRYSLEGGRSDSLRSFSSDRSHTLSHASYLRDSAVMDDSVVIPSHQVSTLAKEAERNSYRLSWGTENLDNVALSSSPIHSGFLVSFMVDARGGAMRGCRHNGLRIIIPPRKCTAPTRVTCRLVKRHRLATMPPMVEGEGLASRLIEVGPSGAQFLGPVIVEIPHFAALRGKERELVVLRSENGDSWKEHFCDYTEDELNEILNGMDEVLDSPEDLEKKRICRIITRDFPQYFAVVSRIKQDSNLIGPEGGVLSSTVVPQVQAVFPEGALTKRIRVGLQAQPMHSELVKKILGNKATFSPIVTLEPRRRKFHKPITMTIPVPKASSDVMLNGFGGDAPTLRLLCSITGGTTPAQWEDITGTTPLTFVNECVSFTTNVSARFWLIDCRQIQESVTFASHVYREIICVPYMAKFVVFAKSHDPIEARLRCFCMTDDKVDKTLEQQENFAEVARSRDVEVLEGKPIYVDCFGNLVPLTKSGQHHIFSFFAFKENRLPLFVKVRDTTQEPCGRLSFMKEPKSTRGLVHQAICNLNITLPIYTKESESDQEQEEEIDMTSEKNPQDEQERIEERLAYIADHLGFSWTELARELDFTEEQIHQIRIENPNSLQDQSHALLKYWLERDGKHATDTNLVECLTKINRMDIVHLMETNTEPLQERISHSYAEIEQTITLDHSEGFSVLQEELCTAQHKQKEEQAVSKESETCDHPPIVSEEDISVGYSTFQDGVPKTEGDSSATALFPQTHKEQVQQDFSGKMQDLPEESSLEYQQEYFVTTPGTETSETQKAMIVPSSPSKTPEEVSTPAEEEKLYLQTPTSSERGGSPIIQEPEEPSEHREESSPRKTSLVIVESADNQPETCERLDEDAAFEKGDDMPEIPPETVTEEEYIDEHGHTVVKKVTRKIIRRYVSSEGTEKEEIMVQGMPQEPVNIEEGDGYSKVIKRVVLKSDTEQSEDNNE
B2: the Kd in the experiment with recombinant B56α protein was determined as 22.2 ± 6.42 µM.

One may read the Kd as the constant that tells how readily two partners part at equilibrium.
